Experimental data taken from PMC11985657.

Biological target: Fc-FGF21 from E. coli (UniProt Q9NSA1)
Assay: BLI

Kd: 10.1 nM
Substance: Human KLB (from UniProt Q86Z14 1-996) (receptor)
